The text below walks through data of publication doi:10.1101/2022.12.13.520362 (bioRxiv, 2022).

The target in test [1] is empty procapsid shells of bacteriophage P22 (WT coat protein) (bacteriophage P22, UniProt P26747 1-430). The experiment in a line: co-sedimentation.
For test [2], the target named is bacteriophage P22 coat protein monomers (WT) (bacteriophage P22, UniProt P26747 1-430). Nature of the test: weak affinity chromatography.

B1: his6-tagged WT scaffolding protein of bacteriophage P22 (gp8) (natural protein, UniProt P26748 1-303, looked up)
chain: MEPTTEIQATEDLTLSGDHAAASADSLVVDNANDNAGQEEGFEIVLKDDETAPKQDPAKNAEFARRRIERKRQRELEQQMEAVKRGELPESLRVNPDLPPQPDINAYLSEEGLAKYDYDNSRALAAFNAANTEWLMKAQDARSNAVAEQGRKTQEFTQQSAQYVEAARKHYDAAEKLNIPDYQEKEDAFMQLVPPAVGADIMRLFPEKSAALMYHLGANPEKARQLLAMDGQSALIELTRLSERLTLKPRGKQISSAPPADQPITGDVSAANKDAIRKQMDAAASKGDVETYRKLKAKLKGIR
Take B1: the binding result in test [1] and in test [2] was “binds” throughout.

B2: his6-tagged L245C scaffolding protein of bacteriophage P22 (natural protein, UniProt P26748 1-303, looked up)
chain: MEPTTEIQATEDLTLSGDHAAASADSLVVDNANDNAGQEEGFEIVLKDDETAPKQDPAKNAEFARRRIERKRQRELEQQMEAVKRGELPESLRVNPDLPPQPDINAYLSEEGLAKYDYDNSRALAAFNAANTEWLMKAQDARSNAVAEQGRKTQEFTQQSAQYVEAARKHYDAAEKLNIPDYQEKEDAFMQLVPPAVGADIMRLFPEKSAALMYHLGANPEKARQLLAMDGQSALIELTRLSERCTLKPRGKQISSAPPADQPITGDVSAANKDAIRKQMDAAASKGDVETYRKLKAKLKGIR
As for B2, in test [1], the binding result was “binds”.
